# Assay results reported in patent US8394929B2, “Nogo receptor-mediated blockade of axonal growth” (Yale University, priority 2000, dated 2013).
# B1: Amino-Nogo: acidic amino terminal 1040 amino acid fragment of Nogo-A expressed as a Myc-his tagged protein in HEK293T cells (protein, UniProt Q9NQC3 1-1040, looked up, fragment)
# chain: MEDLDQSPLVSSSDSPPRPQPAFKYQFVREPEDEEEEEEEEEEDEDEDLEELEVLERKPAAGLSAAPVPTAPAAGAPLMDFGNDFVPPAPRGPLPAAPPVAPERQPSWDPSPVSSTVPAPSPLSAAAVSPSKLPEDDEPPARPPPPPPASVSPQAEPVWTPPAPAPAAPPSTPAAPKRRGSSGSVDETLFALPAASEPVIRSSAENMDLKEQPGNTISAGQEDFPSVLLETAASLPSLSPLSAASFKEHEYLGNLSTVLPTEGTLQENVSEASKEVSEKAKTLLIDRDLTEFSELEYSEMGSSFSVSPKAESAVIVANPREEIIVKNKDEEEKLVSNNILHNQQELPTALTKLVKEDEVVSSEKAKDSFNEKRVAVEAPMREEYADFKPFERVWEVKDSKEDSDMLAAGGKIESNLESKVDKKCFADSLEQTNHEKDSESSNDDTSFPSTPEGIKDRSGAYITCAPFNPAATESIATNIFPLLGDPTSENKTDEKKIEEKKAQIVTEKNTSTKTSNPFLVAAQDSETDYVTTDNLTKVTEEVVANMPEGLTPDLVQEACESELNEVTGTKIAYETKMDLVQTSEVMQESLYPAAQLCPSFEESEATPSPVLPDIVMEAPLNSAVPSAGASVIQPSSSPLEASSVNYESIKHEPENPPPYEEAMSVSLKKVSGIKEEIKEPENINAALQETEAPYISIACDLIKETKLSAEPAPDFSDYSEMAKVEQPVPDHSELVEDSSPDSEPVDLFSDDSIPDVPQKQDETVMLVKESLTETSFESMIEYENKEKLSALPPEGGKPYLESFKLSLDNTKDTLLPDEVSTLSKKEKIPLQMEELSTAVYSNDDLFISKEAQIRETETFSDSSPIEIIDEFPTLISSKTDSFSKLAREYTDLEVSHKSEIANAPDGAGSLPCTELPHDLSLKNIQPKVEEKISFSDDFSKNGSATSKVLLLPPDVSALATQAEIESIVKPKVLVKEAEKKLPSDTEKEDRSPSAIFSAELSKTSVVDLLYWRDIKKTGVVFGASLFLLLSLTVFSIVSVT
# modifications: Myc-His tag
# notes: acidic amino terminal 1040 amino acid fragment of Nogo-A expressed as a Myc-his tagged protein in HEK293T cells
# Legend:
# COS-7 cells = assay: COS-7 cell spreading; type: cell-based
# Protocol: (§1) (a) is a schematic diagram which summarizes features of the Nogo proteins utilized in this study. (b) is a photograph of NIH-3T3 fibroblasts cultured on surfaces coated with Amino-Nogo, GST-Nogo-66 or no protein and stained for filamentous actin (scale bar, 40 μm). (c) is a photograph of chick E12 dorsal root ganglions cultured on surfaces coated with Amino-Nogo, GST-Nogo-66 or no protein (substrate-bound) or with 100 nM Nogo protein (soluble) (scale bar, 40 μm). […] (e) is a graph displaying experimental data where the percentage of 3T3 fibroblasts with an area greater than 1200 μm^2 (spread) was measured from experiments as in (b) on Nogo-coated surfaces (black) or with soluble 100 nM Nogo preparations (blue) (AM, Amino-Nogo; AM+Myc, Amino-Nogo preincubated with anti-Myc antibody; AM+Myc+Mo, AM+Myc preincubated with anti-mouse IgG antibody; Myc+Mo, anti-Myc antibody plus anti-murine IgG antibody). (f) is a graph displaying experimental data where the percentage of spread COS-7 cells was determined after culture on Nogo-coated surfaces or with soluble 100 nM Nogo preparations. (g) is a graph displaying experimental data where the effects of purified preparations of GST-Nogo-66 or Amino-Nogo on growth cone morphology was assessed in E12 dorsal root ganglion cultures at the indicated concentrations after thirty minutes. […]
# [1] = system: Mouse P4 cerebellar granule neurons; assay: Cerebellar granule neuron axon outgrowth; type: cell-based
# Protocol: as §1
# [2] = system: chick dorsal root ganglion neurons; assay: Neurite outgrowth assay in chick DRG neurons; type: cell-based
# Protocol: (§2) For all experiments involving cell culture, the following methods were employed. The culture of embryonic chick E10 and E12 dorsal root ganglion explants and dissociated neurons utilized methods described for E7 dorsal root ganglion cultures (Takahashi et al., (1998) Nature Neurosci. 1, 487-493; Takahashi et al., (1999) Cell 99, 59-69; Goshima et al., (1995) Nature 376, 509-514; Jin & Strittmatter, (1997) J. Neurosci. […]). NGF-differentiated PC12 cells were cultured as described (Strittmatter et al., (1994) J. Neurosci. 14, 2327-2338). Embryonic spinal cord explants (rat E10 or chick E5) were cultured for 7-14 days in the presence of PDGF-AA to induce differentiation of some cells into mature oligodendrocytes (Vartanian et al., (1999) Proc. Natl. Acad. Sci. USA 96, 731-735). The procedure for growth cone collapse assays is identical to that for analysis of Sema3A-induced growth cone collapse (Takahashi et al., (1998) Nature Neurosci. 1, 487-493; Takahashi et al., (1999) Cell 99, 59-69; Goshima et al., (1995) Nature 376, 509-514; Jin & Strittmatter, (1997) J. Neurosci. 17, 6256-6263). The method for analysis of total neurite outgrowth has also been described (Goshima et al., (1995) Nature 376, 509-514; Jin & Strittmatter, (1997) J. Neurosci. 17, 6256-6263; Strittmatter et al., (1994) J. Neurosci. 14, 2327-2338). In outgrowth assays, proteins and peptides were added one hour after plating to minimize any effect on the total number of adherent cells. To test the effect of substrate-bound GST or GST-Nogo, the protein solutions were dried on poly-L-lysine coated glass, washed and then coated with laminin. For E12 cultures, the neuronal identity of cells was verified by staining with anti-neurofilament antibodies (2H3, Develomental Studies Hybridoma Bank) and neurites were traced by observation of rhodamine-phalloidin staining of F-actin in processes.
# For neurite outgrowth assays, plastic chamber slides were coated with 100 μg ml^−1 poly-L-lysine, washed, and dried. 3 μl drops of PBS containing GST-Nogo-66 were spotted and dried. Slides were then rinsed and coated with 10 μg ml fs24^−1 laminin before addition of dissociated E12 chick DRGs. AP-fusion proteins were added at the time of cell plating. Cultures were grown for 5-7 h after which neurite outgrowth was assessed.
# [3] = system: chick E12 dorsal root ganglion growth cones; assay: Growth cone collapse assay in chick dorsal root ganglion explants; type: cell-based; conditions: soluble form at 100 nM; chick E12 DRG
# Protocol: as §2
# The expression of recombinant Nogo in HEK293T cells allows a rigorous test of whether this protein has axon outgrowth inhibiting effects. Washed membrane fractions from vector- or hNogo-A-Myc-transfected HEK293T cells were added to chick E12 dorsal root ganglion explant cultures. Growth cone morphology was assessed after a thirty minute incubation at 37° C. by fixation and rhodamine-phalloidin staining.
# Briefly, for growth cone collapse, DRG explants were plated on plastic chamber slides precoated with 100 μg ml^−1 poly-L-lysine and 10 μg ml^−1 laminin. Cultures were grown 14-16 h prior to treatment.
# 3T3 fibroblasts = assay: 3T3 fibroblast spreading; type: cell-based, mouse
# Protocol: (a) is a schematic diagram which summarizes features of the Nogo proteins utilized in this study. (b) is a photograph of NIH-3T3 fibroblasts cultured on surfaces coated with Amino-Nogo, GST-Nogo-66 or no protein and stained for filamentous actin (scale bar, 40 μm). (c) is a photograph of chick E12 dorsal root ganglions cultured on surfaces coated with Amino-Nogo, GST-Nogo-66 or no protein (substrate-bound) or with 100 nM Nogo protein (soluble) (scale bar, 40 μm). (d) is a photograph of a gel and an immunoblot where purified Amino-Nogo-Myc-His protein was subjected to SDS-PAGE and stained with Commassie Brilliant Blue (CBB) or immunoblotted with anti-Myc antibodies (Myc) (molecular weight markers of 200, 116, 97, 65 & 45 kDa are at left). (e) is a graph displaying experimental data where the percentage of 3T3 fibroblasts with an area greater than 1200 μm^2 (spread) was measured from experiments as in (b) on Nogo-coated surfaces (black) or with soluble 100 nM Nogo preparations (blue) (AM, Amino-Nogo; AM+Myc, Amino-Nogo preincubated with anti-Myc antibody; AM+Myc+Mo, AM+Myc preincubated with anti-mouse IgG antibody; Myc+Mo, anti-Myc antibody plus anti-murine IgG antibody). (f) is a graph displaying experimental data where the percentage of spread COS-7 cells was determined after culture on Nogo-coated surfaces or with soluble 100 nM Nogo preparations. (g) is a graph displaying experimental data where the effects of purified preparations of GST-Nogo-66 or Amino-Nogo on growth cone morphology was assessed in E12 dorsal root ganglion cultures at the indicated concentrations after thirty minutes. […] (h) is a graph displaying experimental data where the neurite outgrowth per cell in […] dorsal root ganglion cultures was quantitated from experiments as in (c) on Nogo-coated surfaces or with soluble 100 nM Nogo preparations. (i) is a graph displaying experimental data where the effects of Nogo preparations on neurite outgrowth in cerebellar granule neurons was measured.
# Assays of Nogo-A function have included growth cone collapse, neurite outgrowth, and fibroblast spreading with substrate-bound and soluble protein preparations (Caroni & Schwab, (1988) J. Cell Biol. 106, 1281-1288; GrandPré et al., (2000) Nature 403, 439-444; Chen et al., (2000) Nature 403, 434-439; Prinjha et al., (2000) Nature 403, 483-484). […] Since NI250 preparations and full length Nogo-A are non-permissive for 3T3 spreading, it was necessary to consider whether different domains of Nogo might subserve this in vitro activity. To facilitate a comparison of different Nogo-A domains, the acidic amino terminal 1040 amino acid fragment (Amino-Nogo) was expressed as a Myc-his tagged protein in HEK293T cells (FIG. 1d). The Nogo protein is present in cytosolic fractions. […]
# [4] = dimerized with anti-Myc antibody
# [5] = substrate-bound / coated surfaces
molecule,measurement,setting,value
B1,COS-7 spreading (in words),COS-7 cells; [4],inhibits
same,non-neuronal cell spreading (in words),"COS-7 cells; soluble, 100 nM",does not significantly modulate
same,cerebellar axon outgrowth (in words),[1]; [4],tends to reduce cerebellar axon outgrowth
same,cerebellar axon outgrowth (in words),[1]; further aggregated by anti-Mouse IgG antibody,significantly reduces
same,dorsal root ganglion axon outgrowth (in words),"[2]; Amino-Nogo with anti-Myc antibody, further aggregated by anti-Mouse IgG antibody",significantly reduces
same,neurite/axon outgrowth (in words),[2]; soluble protein or peptide added to culture,does not significantly modulate
same,neurite/axon outgrowth (in words),[2]; [5],axonal outgrowth is reduced to low levels
same,growth cone morphology (in words),[3],does not significantly modulate
same,3T3 spreading (in words),3T3 fibroblasts; [4],inhibits
same,non-neuronal cell spreading (in words),"3T3 fibroblasts; soluble, 100 nM",does not significantly modulate
same,3T3 fibroblast spreading (in words),3T3 fibroblasts; [5],fail to support 3T3 fibroblast spreading
